The text below walks through data of article PMC5075775.

Broadly, the Kd is a measure of binding affinity in units of concentration.

For one series, the system named is monoclonal anti-DNA antibody ED-10. Put plainly: SPR. Conditions: ka 1.009e8, kd 7.860e-1; text also claims higher binding of SEQ4; LNA at 4, 10, 13, 19 of strand 1 by plus signs (Table 1 lists 4, 10, 14, 19); SPR: Biacore X100, SA chip, immobilisation in HBS-EP+ (0.1 M HEPES, 1.5 M NaCl, 30 mM EDTA, 0.5% P20), 37 C; ELISA: antigens coated in PBS, diluent PBS …. (SPR reads the build-up and loss of mass on a sensor chip optically.)
“TCCTCTCTTTCTCTTTCTCTT (double strand) [SEQ4 biotinylated LNA/DNA duplex (SPR)]”: the Kd worked out at 779 nM.

Staying with this series, now noted: ka 3.341e3, kd 3.531e-4; SPR: Biacore X100, SA chip, immobilisation in HBS-EP+ (0.1 M HEPES, 1.5 M NaCl, 30 mM EDTA, 0.5% P20), 37 C; ELISA: antigens coated in PBS, diluent PBS ….
“TCCTCTCTTTCTCTTTCTCTT (double strand) [SEQ5 biotinylated duplex (SPR)]” returned a Kd of 106 nM.

For the next series, the system named is monoclonal anti-dsDNA antibody HYB 331-01, clone 35I9. Briefly: ELISA. To be noted: LNA at 1, 4 of strand 1; SPR: Biacore X100, SA chip, immobilisation in HBS-EP+ (0.1 M HEPES, 1.5 M NaCl, 30 mM EDTA, 0.5% P20), 37 C; ELISA: antigens coated in PBS, diluent PBS ….
“TCCTCTCTTTCTCTTTCTCTT (double strand) [D20]” yielded a binding signal of 0.89 A450.

Staying with this series, now noted: LNA at 4, 13, 19 of strand 1; SPR: Biacore X100, SA chip, immobilisation in HBS-EP+ (0.1 M HEPES, 1.5 M NaCl, 30 mM EDTA, 0.5% P20), 37 C; ELISA: antigens coated in PBS, diluent PBS ….
“TCCTCTCTTTCTCTTTCTCTT (double strand) [D19 (LNA pattern of SEQ1)]” yielded a binding signal of 1.12 A450.

The series is the same for the next values; noted with them: LNA at 4 of strand 1; SPR: Biacore X100, SA chip, immobilisation in HBS-EP+ (0.1 M HEPES, 1.5 M NaCl, 30 mM EDTA, 0.5% P20), 37 C; ELISA: antigens coated in PBS, diluent PBS ….
In turn, “TCCTCTCTTTCTCTTTCTCTT (double strand) [D22]” yielded a binding signal of 0.56 A450.

Still in this series, the particulars now being: LNA at 11, 13 of strand 1; SPR: Biacore X100, SA chip, immobilisation in HBS-EP+ (0.1 M HEPES, 1.5 M NaCl, 30 mM EDTA, 0.5% P20), 37 C; ELISA: antigens coated in PBS, diluent PBS ….
“TCCTCTCTTTCTCTTTCTCTT (double strand) [D21]” showed a binding signal of 0.77 A450.

The series is the same for the next values; noted with them: SPR: Biacore X100, SA chip, immobilisation in HBS-EP+ (0.1 M HEPES, 1.5 M NaCl, 30 mM EDTA, 0.5% P20), 37 C; ELISA: antigens coated in PBS, diluent PBS ….
In turn, “TTATATTTATATTTATATAAT (double strand) [D6 (AT)]” had a binding signal of 1 A450.
On the same count and under the same terms, the same measure for “AGGGAGGGGGAGAGGGAGAGG (double strand) [D11 (AG)]”: 0.78 A450; for “TTGTGTTTGTGTTTGTGTGGT (double strand) [D7 (GT)]”: 1.87 A450; for “ATTTATTTTTATATTTATATT (double strand) [D8 (AT, SEQ6)]”: 1.27 A450.
Same read-out and setting: the same measure for “CCACACCCACACCCCCACCCA (double strand) [D12 (CA)]”: 0.78 A450.
Same read-out and setting: next, “TGGTGTGTTTGTGTTTGTGTT (double strand) [D3 (TG)]”: 1.13 A450; “TCCTCTCTTT (double strand) [D15 (TC 10mer)]”: 0.9 A450.
For the sequence “TCCTCTCTTTCTCTTTCTCTTTCCTCTCTTTCTCTTTCTCTTTCCTCTCTTTCTCTTTCTCTT (double strand) [D17 (TC 63mer)]”, the binding signal stood at 1.5 A450.
“TTCTCTTTCTCTTTCTCTCCT (double strand) [D5 (CT)]” returned a binding signal of 0.98 A450.
Turning to “TAATATATTTATATTTATATT (double strand) [D2 (TA)]”, the binding signal was 1.11 A450.
The same measure, in the same setting: the same measure for “GGAGAGGGAGAGGGGGAGGGA (double strand) [D13 (GA)]”: 0.89 A450; for “ATTTATTTTT (double strand) [D16 (AT 10mer)]”: 0.76 A450; for “TGAACTCTATGTCTGTATCAT (double strand) [D14 (ATCG mixmer, SEQ7)]”: 1.55 A450.
“ATTTATTTTTATATTTATATTATTTATTTTTATATTTATATTATTTATTTTTATATTTATATT (double strand) [D18 (AT 63mer)]” returned a binding signal of 1.44 A450.
On the same count and under the same terms, the same measure for “TCCTCTCTTTCTCTTTCTCTT (double strand) [D1 (SEQ5)]”: 1.41 A450.
